# Patent US20140294826A1 (TUFTS UNIVERSITY, published 2014)
# B1: ciB-A11 (VHH)
# VHH: QVQLVEGGGGLVQPGGALRLSCAASVFGMDYYYIGWVRQAPGKEREGVSCISNIGRTHYADSVKGRFTISRDNAKNTVYLQMNSLKPEDTAVYYCAAAPLVGNYCPASYEYESWGQGTQVTVSS
# B2: ciB-A11/B5 heterodimer (designed binder)
# chain: QVQLVEGGGGLVQPGGALRLSCAASVFGMDYYYIGWVRQAPGKEREGVSCISNIGRTHYADSVKGRFTISRDNAKNTVYLQMNSLKPEDTAVYYCAAAPLVGNYCPASYEYESWGQGTQVTVSSAHHSEDPSGGGGSGGGGSGGGGSQVQLVESGGGLVQPGGSLRLSCAASGQSLDNYIIGWFRQAPGKEREGVSCIDRTGTVTHYADSVKGRFTISTDNVKNTVYLEMNDLKPEDTATYFCAAERRWGVVSVCVISDYYFDSWGQGTQVTVSSAHHSEDPS
# B3: ciB-B5 (VHH)
# VHH: QVQLVESGGGLVQPGGSLRLSCAASGQSLDNYIIGWFRQAPGKEREGVSCIDRTGTVTHYADSVKGRFTISTDNVKNTVYLEMNDLKPEDTATYFCAAERRWGVVSVCVISDYYFDSWGQGTQVTVSS
# B4: A9/A5/G1 heterotrimer VNA (designed binder)
# chain: QVQLVETGGGLAQAGDSLRLSCVEPGRTLDMYAMGWIRQAPGEEREFVASISGVGGSPRYADSVKGRFTISKDNTKSTIWLQMNSLKPEDTAVYYCAAGGDIYYGGSPQWRGQGTRVTVSSEPKTPKPQGGGGSGGGGSGGGGSQVQLVESGGGLVQPGGSLRLSCAALEFTLEDYAIAWFRQAPGKEREGVSCISKSGVTKYTDSVKGRFTVARDNAKSTVILQMNNLRPEDTAVYNCAAVRPVFVDSVCTLATRYTYWGEGTQVTVSSAHHSEDPGGGGSGGGGSGGGGSQVQLVESGGGLVQPGESLRLSCVASASTFSTSLMGWVRQAPGKGLESVAEVRTTGGTFYAKSVAGRFTISRDNAKNTLYLQMNSLKAEDTGVYYCTAGAGPIATRYRGQGTQVTVSSAHHSEDP
# B5: A9/D4 heterodimer VNA (designed binder)
# chain: QVQLVETGGGLAQAGDSLRLSCVEPGRTLDMYAMGWIRQAPGEEREFVASISGVGGSPRYADSVKGRFTISKDNTKSTIWLQMNSLKPEDTAVYYCAAGGDIYYGGSPQWRGQGTRVTVSSEPKTPKPQGGGGSGGGGSGGGGSQVQLVESGGGLVQAGGSLRLSCAASGRINGDYAMGWFRQAPGEEREFVAVNSWIGGSTYYTDSVKGRFTLSRDNAKNTLSLQMNSLKPEDTAVYYCAAGHYTDFPTYFKEYDYWGQGTQVTVSSEPKTPKPQ
# B6: Stx1-D4 (VHH)
# VHH: QVQLVESGGGLVQAGGSLRLSCAASGRINGDYAMGWFRQAPGEEREFVAVNSWIGGSTYYTDSVKGRFTLSRDNAKNTLSLQMNSLKPEDTAVYYCAAGHYTDFPTYFKEYDYWGQGTQVTVSS
# B7: Stx2-G9 (VHH)
# VHH: QVQLVESGGGLVQPGGSLTLSCTASGFTLNSYKIGWFRQAPGKEREGVSCINSGGNLRSVEGRFTISRDNTKNTVSLHMDSLKPEDTGVYHCAAAPALNVFSPCVLAPRYDYWGQGTQVTVSS
# B8: Stx2-A6 (VHH)
# VHH: QVQLVESGGGLVQPGGSLKLSCAASGFTLADYVTVWFRQAPGKSREGVSCISSSRGTPNYADSVKGRATVSRNNANNTVYLQMNGLKPDDTAIYYCAAIRPARLRAYRECLSSQAEYDYWGQGTQVTVSS
# B9: Stx2-D2 (VHH)
# VHH: QVQLVESGGGLVQPGGSLGLSCAMSGTTQDYSAVGWFRQAPGKEREGVSCISRSGRRTNYADSVRGRFTISRDNAKDTVYLQMNSLKPDDTAVYYCAARKTDMSDPYYVGCNGMDYWGKGTLVTVSS
# B10: Stx2-H6 (VHH)
# VHH: QVQLVETGGGLVQPGGSLRLSCAASGFSLDPYVIGWFRQAPGKEREGVSCITSRAASRTSVDSVNERFTISRDNAKNTVDLHINNLKPEDSGVYYCAAVPPAKLPLFSLCRSLPAKYDYWGQGTQVTVSS
# B11: Stx1-A9 (VHH)
# VHH: QVQLVETGGGLAQAGDSLRLSCVEPGRTLDMYAMGWIRQAPGEEREFVASISGVGGSPRYADSVKGRFTISKDNTKSTIWLQMNSLKPEDTAVYYCAAGGDIYYGGSPQWRGQGTRVTVSS
# B12: Stx-A4 (VHH)
# VHH: QVQLVESGGGLVQPGGSLRLSCAASGFTLGSYHIGWFRHPPGKEREGTSCLSSRGDYTKYAEAVKGRFTISRDNTKSTVYLQMNNLKPEDTGIYVCAAIRPVLSDSHCTLAARYNYWGQGTQVTVSS
# B13: Stx2-G1 (VHH)
# VHH: QVQLVESGGGLVQPGESLRLSCVASASTFSTSLMGWVRQAPGKGLESVAEVRTTGGTFYAKSVAGRFTISRDNAKNTLYLQMNSLKAEDTGVYYCTAGAGPIATRYRGQGTQVTVSS
# B14: Stx-A5 (VHH)
# VHH: QVQLVESGGGLVQPGGSLRLSCAALEFTLEDYAIAWFRQAPGKEREGVSCISKSGVTKYTDSVKGRFTVARDNAKSTVILQMNNLRPEDTAVYNCAAVRPVFVDSVCTLATRYTYWGEGTQVTVSS
# B15: A5/D10 heterodimer VNA (designed binder)
# chain: QVQLVESGGGLVQPGGSLRLSCAALEFTLEDYAIAWFRQAPGKEREGVSCISKSGVTKYTDSVKGRFTVARDNAKSTVILQMNNLRPEDTAVYNCAAVRPVFVDSVCTLATRYTYWGEGTQVTVSSAHHSEDPGGGGSGGGGSGGGGSQVQLVETGGLVQAGGSLRLSCAASGVPFSDYTMAWFRQAPGKEREVVARITWRGGGPYYGNSGNGRFAISRDIAKSMVYLHMDSLKPEDTAVYYCAASRLRPALASMASDYDYWGQGTQVSVSSEPKTPKPQ
# B16: G1/D10 heterodimer VNA (designed binder)
# chain: QVQLVESGGGLVQPGESLRLSCVASASTFSTSLMGWVRQAPGKGLESVAEVRTTGGTFYAKSVAGRFTISRDNAKNTLYLQMNSLKAEDTGVYYCTAGAGPIATRYRGQGTQVTVSSAHHSEDPGGGGSGGGGSGGGGSQVQLVETGGLVQAGGSLRLSCAASGVPFSDYTMAWFRQAPGKEREVVARITWRGGGPYYGNSGNGRFAISRDIAKSMVYLHMDSLKPEDTAVYYCAASRLRPALASMASDYDYWGQGTQVSVSSEPKTPKPQ
# B17: Stx2-D10 (VHH)
# VHH: QVQLVETGGLVQAGGSLRLSCAASGVPFSDYTMAWFRQAPGKEREVVARITWRGGGPYYGNSGNGRFAISRDIAKSMVYLHMDSLKPEDTAVYYCAASRLRPALASMASDYDYWGQGTQVSVSS
# Molecular target: T1, Botulinum neurotoxin serotype B (BoNT/B) holotoxin (Clostridium botulinum, UniProt P10844 2-1291)
# T1 sequence: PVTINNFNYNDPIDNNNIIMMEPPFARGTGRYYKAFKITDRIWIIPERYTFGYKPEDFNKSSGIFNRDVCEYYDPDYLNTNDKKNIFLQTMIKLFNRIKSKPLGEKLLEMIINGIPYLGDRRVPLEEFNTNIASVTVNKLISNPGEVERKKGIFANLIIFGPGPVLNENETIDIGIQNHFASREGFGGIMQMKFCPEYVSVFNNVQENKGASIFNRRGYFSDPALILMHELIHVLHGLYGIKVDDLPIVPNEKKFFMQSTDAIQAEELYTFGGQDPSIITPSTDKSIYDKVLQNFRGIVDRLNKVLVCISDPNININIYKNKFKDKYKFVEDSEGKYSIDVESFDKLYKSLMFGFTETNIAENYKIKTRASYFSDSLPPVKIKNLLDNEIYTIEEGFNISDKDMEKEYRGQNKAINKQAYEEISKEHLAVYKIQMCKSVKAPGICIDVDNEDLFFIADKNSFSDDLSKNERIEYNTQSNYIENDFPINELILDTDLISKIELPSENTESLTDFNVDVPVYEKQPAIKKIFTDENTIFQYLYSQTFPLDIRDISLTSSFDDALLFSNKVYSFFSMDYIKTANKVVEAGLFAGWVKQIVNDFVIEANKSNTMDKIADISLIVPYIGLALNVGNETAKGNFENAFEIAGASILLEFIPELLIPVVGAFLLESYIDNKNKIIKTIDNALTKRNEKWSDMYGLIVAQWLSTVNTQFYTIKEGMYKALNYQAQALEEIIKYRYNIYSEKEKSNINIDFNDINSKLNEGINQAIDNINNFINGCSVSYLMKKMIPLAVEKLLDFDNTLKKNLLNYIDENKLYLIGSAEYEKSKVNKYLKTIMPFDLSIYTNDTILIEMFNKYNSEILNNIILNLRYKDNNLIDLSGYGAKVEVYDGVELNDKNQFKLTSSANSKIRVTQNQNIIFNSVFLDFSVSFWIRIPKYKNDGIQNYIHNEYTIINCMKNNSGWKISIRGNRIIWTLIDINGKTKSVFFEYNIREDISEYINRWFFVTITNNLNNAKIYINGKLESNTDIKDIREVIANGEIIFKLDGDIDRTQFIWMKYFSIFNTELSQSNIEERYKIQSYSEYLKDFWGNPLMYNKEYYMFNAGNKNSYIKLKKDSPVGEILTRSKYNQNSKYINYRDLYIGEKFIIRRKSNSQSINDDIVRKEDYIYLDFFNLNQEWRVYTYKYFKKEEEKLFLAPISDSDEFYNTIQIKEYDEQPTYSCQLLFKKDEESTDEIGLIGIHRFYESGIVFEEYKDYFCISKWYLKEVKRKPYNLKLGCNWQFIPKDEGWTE
# Test: SPR; chip ligand for BoNT/B not described
row,Binder,Kd [nM]
1,B1,0.84
2,B2,5.3
3,B3,0.97

# Molecular target: Shiga toxin 1 (Stx1) (Escherichia coli O157:H7) (UniProt P08026)
# Sequence (P08026 23-315): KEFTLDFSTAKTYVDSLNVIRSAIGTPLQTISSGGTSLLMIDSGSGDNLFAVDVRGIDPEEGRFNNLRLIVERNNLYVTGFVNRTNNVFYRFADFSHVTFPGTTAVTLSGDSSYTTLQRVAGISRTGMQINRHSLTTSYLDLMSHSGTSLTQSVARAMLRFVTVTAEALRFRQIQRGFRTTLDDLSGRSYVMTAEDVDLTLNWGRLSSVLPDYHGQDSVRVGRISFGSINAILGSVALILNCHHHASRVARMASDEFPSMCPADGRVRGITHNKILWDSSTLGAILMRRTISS
# Test: not given
row,Binder,EC50 (read off the curve) [nM]
1,B4,0.5

# Molecular target: Shiga toxin 1 (Stx1) (Escherichia coli O157:H7) (UniProt P08026)
# Test: not given
# Remark: another data set of the same source
row,Binder,EC50 (read off the curve) [nM]
1,B5,0.6
2,B6,0.5

# Molecular target: Shiga toxin 1 (Stx1) (Escherichia coli O157:H7) (UniProt P08026)
# Test: dilution ELISA, HRP-anti-E-tag
row,Binder,EC50 [nM]
1,B7,> 1000
2,B5,0.6
3,B8,> 1000
4,B9,> 1000
5,B6,0.5
6,B4,0.5
7,B10,> 1000
8,B11,10
9,B12,30
10,B13,> 1000
11,B14,15
12,B15,30
13,B16,> 1000
14,B17,> 1000

# Molecular target: Shiga toxin 1 (Stx1) (Escherichia coli O157:H7) (UniProt P08026)
# Test: SPR, Stx1 immobilised
row,Binder,Kd [nM]
1,B5,1.2
2,B6,0.128
3,B4,0.46
4,B11,7.6
5,B12,7.2
6,B14,12.5
7,B15,9.2

# Molecular target: Shiga toxin 1 (Stx1) (Escherichia coli O157:H7) (UniProt P08026)
# Test: cell-based or functional assay
row,Binder,"IC50, Vero cell neutralization assay [nM]"
1,B7,> 1000
2,B5,1
3,B6,> 1000
4,B4,0.05
5,B10,> 1000
6,B11,10
7,B12,> 330
8,B13,> 1000
9,B14,100
10,B15,50
11,B16,> 100
12,B17,> 1000
